Source: patent US20230331827A1, “POTASSIUM CHANNEL INHIBITORS” (priority 2017, published 2023)
Like-named read-outs stand apart in the source and are kept apart here.

Tests used:
human Kv1.1 (huKv1.1) = target: T1, human Kv1.1 (huKv1.1) (Homo sapiens, UniProt Q09470); assay: QPatch automated patch-clamp, CHO-S cells expressing huKv1.1 (Examples 20-21); assay type: cell-based
T1 construct: expressed in transfected cells; host or cells: Freestyle CHO-S
Description: 1. The effect of these KnotBodies on cells expressing human Kv1.1 (huKv1.1) and Kv1.3 (huKv1.3) channels was assessed using QPatch automated patch-clamp platform (Sophion).
To generate huKv1.1 expressing cells, Freestyle CHO-S cells (Cat. no. R80007, Life Technologies, California, USA) were transfected with pINT50-Tr plasmid encoding huKv1.1 gene using the MaxCyte STX (MaxCyte) transfection system. In pINT50-Tr plasmid, huKv1.1 gene is under the control of a CMV promoter. 64 µg of the plasmid DNA were added to 400 µl of Freestyle CHO-S cells (at a density of 1 × 10^8 cells/ml) in Electroporation Buffer (GE Healthcare Life Sciences, Cat. no. EPB1) in an OC-400 processing assembly (MaxCyte). Following electroporation, the cells were transferred to a well of a 24-well plate containing 200 U/ml DNAse I (Sigma, D4263) and incubated for 20 minutes at 37° C. and 5% CO2. The cells were then transferred into a 100 ml shaker flask containing 20 ml of CD Opticho Media (Thermo Fisher Scientific, Cat.No 12681-011,) supplemented with 8 mM L-Glut (Thermo Fisher Scientific, cat. no. 25030-024). The cells were incubated for 24 hours at 37° C. and 5% CO2 (and 75% humidity and shaking at 800 rpm) prior to testing using automated patch clamp electrophysiology.
(§1) For the testing of Kv1.1 and Kv1.3, CHO-S expressing huKv1.1 (described above) or CHO cells stably expressing huKv1.3 (Charles River Lab) were analysed using the QPatch electrophysiology assay in the presence or absence of the KnotBody fusions. Internal and external physiological solutions were freshly prepared prior to the assay. The extracellular solution contained 145 mM NaCl, 4 mM KC1, 2 mM CaC12, 1 mM MgC12, 10 mM HEPES and 10 mM glucose; the pH was adjusted to 7.4 with NaOH; the osmolarity was ~ 305 mOsm/L. The intracellular solution contained: KF (120 mM), KC1 (20 mM), HEPES (10 mM) EGTA (10 mM); the pH was adjusted to 7.2 with KOH; osmolarity was ~ 300 mOsm/L.
(§2) A series of depolarising voltage (channel activating) pulses were used to monitor the channel currents upon adding control (extracellular solution) to define a control baseline of current activity. To these measured control currents four, ascending concentrations of KnotBodies (including previously described KB_A12_ShK and KB_A12_KTX described in Example 8) or parental antibody isotypes (control molecules) were applied to the external bathing solution. KnotBodies KB_A12 and KB_A07 (EETI-II fusions) were used as isotype controls for the testing. From a holding voltage of -80 mV a depolarising, activating voltage pulses of +30 were applied for 300 ms, every 10 seconds. The elicited, maximum outward current values measured during the activating step for each solution exchange period, averaged (n = 3 - 6 for each concentration applied) and plotted as concentration-response curves (see FIG. 33). From these concentration-response curves IC50 values were calculated (see Table E20).
(§3) For the testing of Kv1.1 and Kv1.3, CHO-S expressing huKv1.1 (see Example 20 and below) or CHO cells stably expressing huKv1.3 (Charles River Lab) were analysed using the QPatch electrophysiology assay in the presence or absence of the KnotBody fusions - see details in Examples 19 and 20.
In addition to the CHO-S transiently expressing huKv1.1 (described in Example 20), CHO-S cells with poly-clonal stable expression of huKv1.1 cells were also made and used in the QPatch electrophysiology assay. To generate the polyclonal stable huKv1.1 cells from the transiently expressing cells described in Example 20, after a 24 hour incubation period the selection antibiotic Puromycin (catalogue no. A1 1138-03, Life Technologies, California, USA) was added to culture media. Then, for the first 14 days puromycin was at 10 µg ml-1 media; at days 15-28 puromycin was at 20 µg ml-1 media. Cell cultures were seeded at 2.5 x 10^5 cells ml^-1 into fresh culture media and puromycin twice per week through this selection growth period. […]

human Kv1.3 (huKv1.3) = target: T2, human Kv1.3 (huKv1.3) (Homo sapiens, UniProt P22001); assay: QPatch automated patch-clamp, CHO cells stably expressing human Kv1.3 (Examples 19-21); assay type: cell-based
T2 construct: host or cells: CHO
T2 sequence (P22001 whole entry): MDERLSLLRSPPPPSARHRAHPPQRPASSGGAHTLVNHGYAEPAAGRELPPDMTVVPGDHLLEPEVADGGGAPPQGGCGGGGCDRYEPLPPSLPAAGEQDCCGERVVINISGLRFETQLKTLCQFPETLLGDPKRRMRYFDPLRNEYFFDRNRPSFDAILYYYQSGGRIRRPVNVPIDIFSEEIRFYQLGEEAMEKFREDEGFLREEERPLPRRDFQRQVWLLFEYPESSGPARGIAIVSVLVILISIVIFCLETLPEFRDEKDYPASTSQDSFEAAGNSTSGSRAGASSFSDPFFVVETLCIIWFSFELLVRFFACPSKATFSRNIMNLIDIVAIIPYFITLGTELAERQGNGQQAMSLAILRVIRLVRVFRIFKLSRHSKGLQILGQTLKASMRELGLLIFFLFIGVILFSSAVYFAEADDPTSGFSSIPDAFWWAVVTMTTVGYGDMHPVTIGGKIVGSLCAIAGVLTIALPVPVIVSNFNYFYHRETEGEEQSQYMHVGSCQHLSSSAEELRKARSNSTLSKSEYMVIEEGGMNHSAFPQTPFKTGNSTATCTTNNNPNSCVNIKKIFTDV
Description: The effect of these KnotBodies on cells expressing human Kv1.3 (huKv1.3) channel was assessed using the QPatch automated patch-clamp platform (Sophion, Ballerup, Denmark). For the testing of Kv1.3 ion channel currents, CHO cells stably expressing human Kv1.3 (GenBank accession number NM_002232.2; cell line catalogue number CT6133, Charles River Discovery, Cleveland, USA) were subjected to a QPatch electrophysiology assay in the presence or absence of the KnotBody fusions or the antibody isotypes (negative controls). Internal and external physiological solutions were freshly prepared prior to the assay. The extracellular solution contained 145 mM NaCl, 4 mM KC1, 2 mM CaC12, 1 mM MgC12, 10 mM HEPES and 10 mM glucose; the pH was adjusted to 7.4 with NaOH; the osmolarity was ~ 305 mOsm/L. The intracellular solution contained: KF (120 mM), KC1 (20 mM), HEPES (10 mM) EGTA (10 mM); the pH was adjusted to 7.2 with KOH; osmolarity was ~ 300 mOsm/L.
as §2, with “(including” for “(including previously described”, “KB_A12_KTX as previously” for “KB_A12_KTX”, “+30 mV” for “+30”, “32).” for “33).”, “calculated.” for “calculated (see Table E20).”
as §1, §2, §3

[1] = four-point curves of FIG. 33, Table E20
[2] = Kv1.1 IC50 over Kv1.3 IC50, Table E20
[3] = four-point curves of FIG. 33, Table E20, read-out: Kv1.3 IC50
[4] = huKv1.3, four-point curves of FIG. 32, Table E19, read-out: IC50

T1 sequence (Q09470 whole entry): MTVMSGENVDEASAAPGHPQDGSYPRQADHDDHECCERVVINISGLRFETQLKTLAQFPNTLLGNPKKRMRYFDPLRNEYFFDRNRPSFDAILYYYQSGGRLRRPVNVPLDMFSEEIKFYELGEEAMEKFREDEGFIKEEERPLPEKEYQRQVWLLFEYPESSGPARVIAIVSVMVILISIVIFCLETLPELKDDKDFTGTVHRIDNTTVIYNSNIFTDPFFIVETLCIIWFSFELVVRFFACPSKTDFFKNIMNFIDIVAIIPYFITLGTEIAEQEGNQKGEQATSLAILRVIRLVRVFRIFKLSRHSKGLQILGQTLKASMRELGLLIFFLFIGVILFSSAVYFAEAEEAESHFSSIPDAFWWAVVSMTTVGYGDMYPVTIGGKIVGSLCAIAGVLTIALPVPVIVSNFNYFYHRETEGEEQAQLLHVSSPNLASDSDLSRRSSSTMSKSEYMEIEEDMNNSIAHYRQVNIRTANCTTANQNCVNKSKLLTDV

| Molecule | IC50 (human Kv1.1 (huKv1.1); [1]) [nM] | Fold difference (human Kv1.3 (huKv1.3); [2]) | IC50 (human Kv1.3 (huKv1.3); [3]) [nM] | IC50 (human Kv1.3 (huKv1.3); [4]) [nM] | IC50 (human Kv1.1 (huKv1.1); Table E21) [nM] | Fold difference (human Kv1.3 (huKv1.3); Kv1.1 IC50 over Kv1.3 IC50, Table E21) | IC50 (human Kv1.3 (huKv1.3); Table E21, read-out: Kvl.3 IC50) [nM] |
| --- | --- | --- | --- | --- | --- | --- | --- |
| KB_A12_Odk2 short: truncated OdK2 in VL CDR2 of KB_A12, IgG (antibody, V domains shown) VH: EVQLVESGGGLVRPGGSLRLSCAASGFTFSSYAMSWVRQAPGKGLEWVSAISGSGGSTYYADSVKGRFTISRDNTKNSLYLQMTSLRADDTAFYYCVKDFGPGYGTGWFDYWGPGTLVTVSS VL: QSVLTQPPSVSEAPRQRVTITCSGSSSNIGNNAVNWYQQLPGKAPKLLIYAAGRVKCRGSPQCIQPCKDAGMRFGKCMNGKCHCTPKANSGVSDRFSAAKSGTSASLAINGLRSEDEADYYCAAWDDSLNGYVFGTGTKLTVLG | 380 | 8 | 49 | 64 | – | – | – |
| KB_A12_ADWX1 short: truncated ADWX-1 in VL CDR2 of KB_A12, IgG (antibody, V domains shown) VH: EVQLVESGGGLVRPGGSLRLSCAASGFTFSSYAMSWVRQAPGKGLEWVSAISGSGGSTYYADSVKGRFTISRDNTKNSLYLQMTSLRADDTAFYYCVKDFGPGYGTGWFDYWGPGTLVTVSS VL: QSVLTQPPSVSEAPRQRVTITCSGSSSNIGNNAVNWYQQLPGKAPKLLIYAAGRVKCKHSRQCLKPCKDAGMRFGKCTNGKCHCTPKANSGVSDRFSAAKSGTSASLAINGLRSEDEADYYCAAWDDSLNGYVFGTGTKLTVLG | 1400 | 6 | 251 | 170 | – | – | – |
| KB_A12_Vm24: Vm24 in VL CDR2 of KB_A12, IgG (antibody, V domains shown) VH: EVQLVESGGGLVRPGGSLRLSCAASGFTFSSYAMSWVRQAPGKGLEWVSAISGSGGSTYYADSVKGRFTISRDNTKNSLYLQMTSLRADDTAFYYCVKDFGPGYGTGWFDYWGPGTLVTVSS VL: QSVLTQPPSVSEAPRQRVTITCSGSSSNIGNNAVNWYQQLPGKAPKLLIYAAGRAAAISCVGSPECPPKCRAQGCKNGKCMNRKCKCYYCANSGVSDRFSAAKSGTSASLAINGLRSEDEADYYCAAWDDSLNGYVFGTGTKLTVLG | 1220 | 102 | 12 | 16 | – | – | – |
| KB_A12_HsTx1 (antibody, V domains shown) VH: EVQLVESGGGLVRPGGSLRLSCAASGFTFSSYAMSWVRQAPGKGLEWVSAISGSGGSTYYADSVKGRFTISRDNTKNSLYLQMTSLRADDTAFYYCVKDFGPGYGTGWFDYWGPGTLVTVSS VL: QSVLTQPPSVSEAPRQRVTITCSGSSSNIGNNAVNWYQQLPGKAPKLLIYAAGRASCRTPKDCADPCRKETGCPYGKCMNRKCKCNRCANSGVSDRFSAAKSGTSASLAINGLRSEDEADYYCAAWDDSLNGYVFGTGTKLTVLG | 650 | 43 | 15 | 3.9 | – | – | – |
| KB_A12_HsTx1 R14A (antibody, V domains shown) VH: EVQLVESGGGLVRPGGSLRLSCAASGFTFSSYAMSWVRQAPGKGLEWVSAISGSGGSTYYADSVKGRFTISRDNTKNSLYLQMTSLRADDTAFYYCVKDFGPGYGTGWFDYWGPGTLVTVSS VL: QSVLTQPPSVSEAPRQRVTITCSGSSSNIGNNAVNWYQQLPGKAPKLLIYAAGRASCRTPKDCADPCAKETGCPYGKCMNRKCKCNRCANSGVSDRFSAAKSGTSASLAINGLRSEDEADYYCAAWDDSLNGYVFGTGTKLTVLG | – | – | – | – | 2990 | >3500 | 0.9 |
| KB_A12_AnTx 2 M: AnTx N17A/F32T in VL CDR2 of KB_A12, IgG (antibody, V domains shown) VH: EVQLVESGGGLVRPGGSLRLSCAASGFTFSSYAMSWVRQAPGKGLEWVSAISGSGGSTYYADSVKGRFTISRDNTKNSLYLQMTSLRADDTAFYYCVKDFGPGYGTGWFDYWGPGTLVTVSS VL: QSVLTQPPSVSEAPRQRVTITCSGSSSNIGNNAVNWYQQLPGKAPKLLIYAAGRQKECTGPQHCTNFCRKAKCTHGKCMNRKCKCTNCKANSGVSDRFSAAKSGTSASLAINGLRSEDEADYYCAAWDDSLNGYVFGTGTKLTVLG | 10300 | 94 | 110 | 85 | – | – | – |
| KB_A12_Odk2: OdK2 in VL CDR2 of KB_A12, IgG (antibody, V domains shown) VH: EVQLVESGGGLVRPGGSLRLSCAASGFTFSSYAMSWVRQAPGKGLEWVSAISGSGGSTYYADSVKGRFTISRDNTKNSLYLQMTSLRADDTAFYYCVKDFGPGYGTGWFDYWGPGTLVTVSS VL: QSVLTQPPSVSEAPRQRVTITCSGSSSNIGNNAVNWYQQLPGKAPKLLIYAAGRGVPTDVKCRGSPQCIQPCKDAGMRFGKCMNGKCHCTPKANSGVSDRFSAAKSGTSASLAINGLRSEDEADYYCAAWDDSLNGYVFGTGTKLTVLG | 2750 | 6 | 457 | 222 | – | – | – |
